In article PMC5007201:

Biological target: human dynein heavy chain with an N-terminal GFP, within the GFP-dynein complex (human) (UniProt Q14204)
Assay: single-molecule photobleaching step counting

A stoichiometry N of 2 was found for “human dynein heavy chain with an N-terminal GFP, within the GFP-dynein complex, Q14204 1-4646” in this work.
